Legend:
[1] = molecular target: T1, PSMA expressed on target cells (PC3pip cells, high density; 22Rv1 cells, low density) (UniProt Q04609 1-750, limits assumed); assay: cell-based or functional assay
[2] = molecular target: T2, biotin-labeled CD16a (Acro P/N CDA-H82E8) (human, UniProt P08637 17-208, biotin-labeled (site not stated)); assay: BLI (Octet), biotin-CD16a on streptavidin sensors, dilutions from 200 nM to 3.125 nM
T2 construct: also called recombinant human CD16a; immobilized CD16a

[3] = molecular target: T3, Biotinylated his-tagged human PSMA (human, UniProt Q04609 44-750, limits assumed, biotinylated (site not stated)); assay: BLI, biotinylated his-tagged human PSMA on streptavidin sensors, pH 7.4
T3 construct: also called immobilized PSMA; not shown: his tag

[4] = molecular target: T1, PSMA expressed on target cells (PC3pip …); assay: cell-based or functional assay; remark: listed apart in the source
[5] = molecular target: T1, PSMA expressed on target cells (PC3pip …); assay: cell-based or functional assay; remark: listed apart in the source
[6] = molecular target: T1, PSMA expressed on target cells (PC3pip …); assay: cell-based or functional assay; remark: listed apart in the source
[7] = molecular target: T1, PSMA expressed on target cells (PC3pip …); assay: cell-based or functional assay; remark: listed apart in the source
[8] = molecular target: T2, biotin-labeled CD16a (Acro P/N …); assay: BLI, biotin-labeled CD16a on streptavidin biosensors, pH 7.4
[9] = molecular target: T3, Biotinylated his-tagged human PSMA; assay: BLI, biotinylated his-tagged human PSMA on streptavidin sensors, pH 5.7
[10] = molecular target: T1, PSMA expressed on target cells (PC3pip …); assay: cell-based or functional assay; remark: listed apart in the source
[11] = molecular target: T1, PSMA expressed on target cells (PC3pip …); assay: cell-based or functional assay; remark: listed apart in the source

T1 sequence (Q04609 whole entry): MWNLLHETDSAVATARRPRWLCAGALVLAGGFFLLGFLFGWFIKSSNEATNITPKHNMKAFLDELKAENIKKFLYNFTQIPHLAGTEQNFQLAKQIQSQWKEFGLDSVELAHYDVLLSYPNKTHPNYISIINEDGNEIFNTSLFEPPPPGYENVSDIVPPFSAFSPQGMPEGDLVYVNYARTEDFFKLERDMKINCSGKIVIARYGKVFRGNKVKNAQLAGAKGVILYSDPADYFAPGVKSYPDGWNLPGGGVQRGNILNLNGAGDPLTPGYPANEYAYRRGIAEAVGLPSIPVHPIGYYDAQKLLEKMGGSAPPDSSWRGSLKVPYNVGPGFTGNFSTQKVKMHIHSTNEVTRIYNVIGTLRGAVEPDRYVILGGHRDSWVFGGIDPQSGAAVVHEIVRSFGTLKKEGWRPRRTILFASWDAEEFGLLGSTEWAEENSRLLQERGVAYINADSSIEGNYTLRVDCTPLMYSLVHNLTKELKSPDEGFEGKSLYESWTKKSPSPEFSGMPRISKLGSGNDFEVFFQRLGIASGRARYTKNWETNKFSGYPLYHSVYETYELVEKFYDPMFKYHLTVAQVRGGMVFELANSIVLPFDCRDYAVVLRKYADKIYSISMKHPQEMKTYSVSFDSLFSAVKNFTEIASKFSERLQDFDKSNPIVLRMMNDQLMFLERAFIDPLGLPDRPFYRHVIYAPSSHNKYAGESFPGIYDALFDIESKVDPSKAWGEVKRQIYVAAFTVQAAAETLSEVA
T3 sequence (Q04609 44-750 limits assumed): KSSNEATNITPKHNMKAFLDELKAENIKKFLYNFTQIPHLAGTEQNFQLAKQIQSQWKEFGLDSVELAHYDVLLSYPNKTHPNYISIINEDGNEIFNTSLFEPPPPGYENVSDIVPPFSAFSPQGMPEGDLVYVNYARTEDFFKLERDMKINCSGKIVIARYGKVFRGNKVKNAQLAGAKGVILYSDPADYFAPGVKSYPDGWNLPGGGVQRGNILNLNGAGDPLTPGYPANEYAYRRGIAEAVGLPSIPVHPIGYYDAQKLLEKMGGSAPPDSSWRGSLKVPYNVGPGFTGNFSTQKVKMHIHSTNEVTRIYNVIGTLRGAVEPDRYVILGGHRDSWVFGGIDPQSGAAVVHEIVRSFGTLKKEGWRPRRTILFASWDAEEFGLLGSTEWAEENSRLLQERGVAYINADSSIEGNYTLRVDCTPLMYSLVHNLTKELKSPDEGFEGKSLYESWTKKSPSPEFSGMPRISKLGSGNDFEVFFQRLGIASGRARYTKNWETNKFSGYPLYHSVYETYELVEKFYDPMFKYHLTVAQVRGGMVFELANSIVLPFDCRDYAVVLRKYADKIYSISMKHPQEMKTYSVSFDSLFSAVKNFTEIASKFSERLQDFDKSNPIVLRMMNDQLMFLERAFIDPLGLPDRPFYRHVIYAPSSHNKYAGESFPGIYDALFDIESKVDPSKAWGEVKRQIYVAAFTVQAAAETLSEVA
T2 sequence (P08637 17-208 limits assumed): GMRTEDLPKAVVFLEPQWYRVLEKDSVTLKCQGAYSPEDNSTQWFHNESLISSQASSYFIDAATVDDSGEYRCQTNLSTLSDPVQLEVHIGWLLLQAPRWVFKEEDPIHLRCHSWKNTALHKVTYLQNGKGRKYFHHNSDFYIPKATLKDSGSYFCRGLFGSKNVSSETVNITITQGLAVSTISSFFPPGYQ

B1: C34 (bispecific antibody)
chain: QVQLQESGGGSVEAGGSLRLSCARSGWPYSTYSMNWFRQAPGKEREAVAGISSTMSGIIFAESKAGQFTISQDNAKNTVYLQMNNLKPEDTAIYYCAARRXFSLSSSSDDFDYWGQGTQVTVSSGGGGSGGGGSGGGGSGGGGSEVQLVESGGGLVQPGGSLRLSCVASGDVHKINFLGWYRQAPGKEREKVAHISIGDQTDYADSAKGRFTISRDESKNMVYLQMNSLKPEDTAVYFCRAFSRIYPYDYWGQGTLVTVSSAAAYPYDVPDYGSSPSTPPTPSPSTPPHHHHHH
modifications: FSY (fluorosulfonyltyrosine) at the position printed X in SEQ ID NO: 49 (position 101 of the anti-PSMA sdAb domain)
Question: Which results are given for B1?
Answer: EC50; T-cell luciferase reporter assay with PC3pip target cells, 6 hr [1]: 1.42 nM; fold potency against C33; T-cell luciferase reporter assay, PC3pip [1]: 21.9 fold

B2: C33 (bispecific antibody)
chain: QVQLQESGGGSVEAGGSLRLSCARSGWPYSTYSMNWFRQAPGKEREAVAGISSTMSGIIFAESKAGQFTISQDNAKNTVYLQMNNLKPEDTAIYYCAARRYFSLSSSSDDFDYWGQGTQVTVSSGGGGSGGGGSGGGGSGGGGSEVQLVESGGGLVQPGGSLRLSCVASGDVHKINFLGWYRQAPGKEREKVAHISIGDQTDYADSAKGRFTISRDESKNMVYLQMNSLKPEDTAVYFCRAFSRIYPYDYWGQGTLVTVSSAAAYPYDVPDYGSSPSTPPTPSPSTPPHHHHHH
Question: How did the “EC50; T-cell luciferase reporter assay with PC3pip target cells, 6 hr” value (shortened to “EC50; T-cell luciferase reporter assay”) [1] turn out when B2 was run?
Answer: Its value is 31.1 nM.

B3: C32 (bispecific antibody)
chain: QVQLQESGGGSVEAGGSLRLSCARSGWPYSTYSMNWFRQAPGKEREAVAGISSTMSGIIFAESKAGQFTISQDNAKNTVYLQMNNLKPEDTAIYYCAARRYFSLSSSSDDFDYWGQGTQVTVSSGGGGSGGGGSGGGGSGGGGSEVQLVESGGGLVQPGGSLRLSCAASGDIYKSFDMGWYRQAPGKQRDLVAVIGSRGNNRGRTNYADSVKGRFTISRDGTGNTVYLLMNKLRPEDTAIYYCNTAPLVAGRPWGRGTLVTVSSAAAYPYDVPDYGSSPSTPPTPSPSTPPHHHHHH
Question: With B3 as the binder, how does the “EC50; T-cell luciferase reporter assay” value [1] read?
Answer: The value was 1.42 nM.

B4: C28 (bispecific antibody)
chain: EVQLVESGGGLVQPGGSLRLSCAASGDIYKSFDMGWYRQAPGKQRDLVAVIGSRGNNRGRTNYADSVKGRFTISRDGTGNTVYLLMNKLRPEDTAIYYCNTAPLVAGRPWGRGTLVTVSSGGGGSGGGGSGGGGSGGGGSQVQLQESGGGSVEAGGSLRLSCARSGWPYSTYSMNWFRQAPGKEREAVAGISSTMSGIIFAESKAGQFTISQDNAKNTVYLQMNNLKPEDTAIYYCAARRYFSLSSSSDDFDYWGQGTQVTVSSAAAYPYDVPDYGSSPSTPPTPSPSTPPHHHHHH
Question: For B4, which “EC50; T-cell luciferase reporter assay” value [1] is on record?
Answer: The value was 14.8 nM.

B5: C30 (bispecific antibody)
chain: EVQLVESGGGLVQPGGSLRLSCVASGDVHKINFLGWYRQAPGKEREKVAHISIGDQTDYADSAKGRFTISRDESKNMVYLQMNSLKPEDTAVYFCRAFSRIYPYDYWGQGTLVTVSSGGGGSGGGGSGGGGSGGGGSQVQLQESGGGSVEAGGSLRLSCARSGWPYSTYSMNWFRQAPGKEREAVAGISSTMSGIIFAESKAGQFTISQDNAKNTVYLQMNNLKPEDTAIYYCAARRXFSLSSSSDDFDYWGQGTQVTVSSAAAYPYDVPDYGSSPSTPPTPSPSTPPHHHHHH
modifications: FSY (fluorosulfonyltyrosine) at the position printed X in SEQ ID NO: 45 (position 101 of the anti-PSMA sdAb domain)
Question: For B5, which “EC50; T-cell luciferase reporter assay” value [1] is on record?
Answer: The value was 0.51 nM.

Question: What about the “fold potency against C29; T-cell luciferase reporter assay, PC3pip” value [1] of the same binder?
Answer: The value was 11.8 fold.

Question: What about the “fold potency against the commercial CD3-PSMA bispecific antibody; T-cell luciferase reporter assay, PC3pip” value [1] of the same binder?
Answer: Its value is 1.6 fold.

B6: C29 (bispecific antibody)
chain: EVQLVESGGGLVQPGGSLRLSCVASGDVHKINFLGWYRQAPGKEREKVAHISIGDQTDYADSAKGRFTISRDESKNMVYLQMNSLKPEDTAVYFCRAFSRIYPYDYWGQGTLVTVSSGGGGSGGGGSGGGGSGGGGSQVQLQESGGGSVEAGGSLRLSCARSGWPYSTYSMNWFRQAPGKEREAVAGISSTMSGIIFAESKAGQFTISQDNAKNTVYLQMNNLKPEDTAIYYCAARRYFSLSSSSDDFDYWGQGTQVTVSSAAAYPYDVPDYGSSPSTPPTPSPSTPPHHHHHH
Question: For B6, which “EC50; T-cell luciferase reporter assay” value [1] is on record?
Answer: The value was 5.98 nM.

B7: C27 (bispecific antibody)
chain: EVQLVESGGGPVQAGGSLRLSCAASGRTYRGYSMGWFRQAPGKEREFVAAIVWSGGNTYYEDSVKGRFTISRDNAKNTMYLQMTSLKPEDSATYYCAAKIRPYIFKIAGQYDYWGQGTLVTVSSGGGGSGGGGSGGGGSGGGGSQVQLQESGGGSVEAGGSLRLSCARSGWPYSTYSMNWFRQAPGKEREAVAGISSTMSGIIFAESKAGQFTISQDNAKNTVYLQMNNLKPEDTAIYYCAARRXFSLSSSSDDFDYWGQGTQVTVSSAAAYPYDVPDYGSSPSTPPTPSPSTPPHHHHHH
modifications: FSY (fluorosulfonyltyrosine) at the position printed X in SEQ ID NO: 42 (position 101 of the anti-PSMA sdAb domain)
Question: What does the source list for B7?
Answer: EC50; T-cell luciferase reporter assay with PC3pip target cells, 6 hr [1]: 0.59 nM; fold efficacy against the commercial CD3-PSMA bispecific antibody; T-cell luciferase reporter assay, PC3pip [1]: 1.2 fold; fold potency against C26; T-cell luciferase reporter assay, PC3pip [1]: 12.7 fold; fold potency against the commercial CD3-PSMA bispecific antibody; T-cell luciferase reporter assay, PC3pip [1]: 1.4 fold

B8: C26 (bispecific antibody)
chain: EVQLVESGGGPVQAGGSLRLSCAASGRTYRGYSMGWFRQAPGKEREFVAAIVWSGGNTYYEDSVKGRFTISRDNAKNTMYLQMTSLKPEDSATYYCAAKIRPYIFKIAGQYDYWGQGTLVTVSSGGGGSGGGGSGGGGSGGGGSQVQLQESGGGSVEAGGSLRLSCARSGWPYSTYSMNWFRQAPGKEREAVAGISSTMSGIIFAESKAGQFTISQDNAKNTVYLQMNNLKPEDTAIYYCAARRYFSLSSSSDDFDYWGQGTQVTVSSAAAYPYDVPDYGSSPSTPPTPSPSTPPHHHHHH
Question: For B8, which “EC50; T-cell luciferase reporter assay” value [1] is on record?
Answer: The value was 7.4 nM.

B9: C37 (anti-CD16a sdAb) (VHH)
VHH: EVQLVESGGGLVQPGESLTLSCVVAGSIFSFAMSWYRQAPGKERELVARIGSDDRVTYADSVKGRFTISRDNIKRTAGLQMNSLKPEDTAVYYCNAQTDLRDWTVREYWGQGTQVTVSS
notes: also called CD16a sdAb domain alone; monospecific anti-CD16a sdAb
Question: Does B9 bind [2]?
Answer: Result: binds

B10: C25 (C37-L3-C36) (bispecific antibody)
chain: EVQLVESGGGLVQPGESLTLSCVVAGSIFSFAMSWYRQAPGKERELVARIGSDDRVTYADSVKGRFTISRDNIKRTAGLQMNSLKPEDTAVYYCNAQTDLRDWTVREYWGQGTQVTVSSGGGGSGGGGSGGGGSGGGGSQVQLQESGGGSVEAGGSLRLSCARSGWPYSTYSMNWFRQAPGKEREAVAGISSTMSGIIFAESKAGQFTISQDNAKNTVYLQMNNLKPEDTAIYYCAARRYFSLSSSSDDFDYWGQGTQVTVSSAAAYPYDVPDYGSSPSTPPTPSPSTPPHHHHHH
notes: also called C25 (TYR); non-covalent construct C25
Question: With B10 as the binder, how does the Kd [3] read?
Answer: The Kd was 1160 nM.

Question: What about the koff [3] of the same binder?
Answer: The koff was 0.03 s⁻¹.

Question: What about the kon [3] of the same binder?
Answer: The kon was 25900 M⁻¹ s⁻¹.

Question: What about the “EC50; ADCC luciferase reporter assay (Jurkat CD16a V158 reporter cells), PC3pip 24 h continuous” value [4] of the same binder?
Answer: The value was 9.2 nM.

Question: And the “EC50 [nM]; NK cell-mediated killing of PC3pip cells, 5 h washout, 20 h incubation” value [5]?
Answer: Its value is 26.2 nM.

Question: And the “EC50 [nM]; primary human NK cell-mediated killing of PC3pip cells, no washout, 20 h incubation” value [6]?
Answer: Its value is 7.02 nM.

Question: What about the “EC50; ADCC reporter assay, 22Rv1 4 h washout, 24 h endpoint” value [7] of the same binder?
Answer: Its value is 62.6 nM.

Question: What about the Kd [8] of the same binder?
Answer: Its Kd is 1.11 nM.

Question: And the koff [8]?
Answer: Its koff is 0.000152 s⁻¹.

Question: And the kon [8]?
Answer: The kon was 137000 M⁻¹ s⁻¹.

Question: What about the Kd [9] of the same binder?
Answer: Its Kd is 1570 nM.

Question: What about the koff [9] of the same binder?
Answer: Its koff is 0.0483 s⁻¹.

Question: And the kon [9]?
Answer: The kon was 30800 M⁻¹ s⁻¹.

Question: And the “EC50; ADCC reporter assay, 22Rv1 24 h continual” value [10]?
Answer: The value was 12.1 nM.

Question: What about the “EC50; ADCC reporter assay, PC3pip 4 h washout, 24 h endpoint” value [11] of the same binder?
Answer: The value was 0.141 nM.

B11: C31 (bispecific antibody)
chain: QVQLQESGGGSVEAGGSLRLSCARSGWPYSTYSMNWFRQAPGKEREAVAGISSTMSGIIFAESKAGQFTISQDNAKNTVYLQMNNLKPEDTAIYYCAARRYFSLSSSSDDFDYWGQGTQVTVSSGGGGSGGGGSGGGGSGGGGSEVQLVESGGGPVQAGGSLRLSCAASGRTYRGYSMGWFRQAPGKEREFVAAIVWSGGNTYYEDSVKGRFTISRDNAKNTMYLQMTSLKPEDSATYYCAAKIRPYIFKIAGQYDYWGQGTLVTVSSAAAYPYDVPDYGSSPSTPPTPSPSTPPHHHHHH
Question: With B11 as the binder, how does the “EC50; T-cell luciferase reporter assay” value [1] read?
Answer: Its value is 5.33 nM.
